# Columns and labels:
# [1] = test system: mixed MCF10A^MUC1,±HER2 cells; experiment: Mixed cell suspension survival assay under anchorage-free conditions; type: cell-based; conditions: 1 nM, 72 h
# Protocol: For mixed cell assays, MUC1ΔCT was induced with 200 ng/ml doxycycline for 24 h. A 1:1 mixture of 2.5×10^5 MCF10A^MUC1 and MCF10AMUC1, HER2 cells were seeded per well in a 24-well ultra-low attachment plate in 0.80 mL of complete media. 200 ng/ml doxycycline, 1 nM StcE, and 1 nM αHER2-eStcE were added as appropriate. The plate was incubated at 37° C., 5% CO2, 125 rpm. At t=0, 24, 48, and 72 h, cells were spun down at 350× g for 5 min, resuspended in 100 μL of PBS with 0.1% benzonase, and incubated at room temperature for 15 min. Cells were then resuspended in 200 μL of enzyme-free cell dissociation buffer and stained with Alexa Fluor 647 anti-human CD340 (erbB2/HER-2) antibody (24D2 clone) (BioLegend) and 500 nM Sytox Green Nucleic Acid Stain (Thermo Fisher Scientific) for 20 min at 4° C., according to manufacturer recommendations, prior to analysis using a BD Accuri C6 plus. All flow cytometry data were analyzed using FlowJo v. 10.0 (TreeStar).
# [2] = target: T1, cell surface CD43 (K562, CCRF-CEM, CCRF-HSB-2 cells) (Homo sapiens, UniProt P16150); experiment: CD43 flow cytometry of leukemia cell lines; type: cell-based; conditions: 50 nM StcE, 1 h
# T1 construct: endogenous in cells; host or cells: K562, CCRF-CEM, CCRF-HSB-2
# T1 sequence (P16150 20-400): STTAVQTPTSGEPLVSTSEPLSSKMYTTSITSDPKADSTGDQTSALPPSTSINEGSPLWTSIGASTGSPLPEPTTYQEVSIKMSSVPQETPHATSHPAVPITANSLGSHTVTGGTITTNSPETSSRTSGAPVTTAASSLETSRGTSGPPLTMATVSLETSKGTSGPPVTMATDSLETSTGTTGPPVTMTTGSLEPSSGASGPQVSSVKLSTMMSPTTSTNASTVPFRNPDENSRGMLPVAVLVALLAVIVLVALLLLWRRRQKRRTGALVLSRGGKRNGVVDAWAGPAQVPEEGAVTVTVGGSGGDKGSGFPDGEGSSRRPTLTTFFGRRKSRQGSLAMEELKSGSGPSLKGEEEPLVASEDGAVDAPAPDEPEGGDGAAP
# Protocol: CD43 and Siglec-7-Fc flow cytometry. 1×10^6 K562, CCRF-CEM, or CCRF-HSB-2 cells growing in log phase were harvested, resuspended in 1 mL of serum-free RPMI, and treated with either vehicle or 50 nM StcE for 1 h. Cells were subsequently spun down at 600× g and washed twice in PBS. Cells were then resuspended in FACS buffer (0.5% BSA in PBS) at 1×10^6 cells/mL and aliquoted into a V-bottom 96-well plate (Corning) at 1×10^5 cells/well. For staining, a precomplex solution of 1 μg/mL Siglec-7-Fc (R&D Systems) and 1 μg/mL Alexa Fluor 488-antihFc was made up in FACS buffer and incubated on ice for 1 h. Alexa Fluor 647 CD43/sialophorin antibody (MEM-59 clone) (Novus Biologicals) was subsequently added to the precomplex solution prior to staining. Cells were stained in 100 μL of staining solution for 30 min, washed twice with FACS buffer, and analyzed by flow cytometry using a BD Accuri C6 plus.
# [3] = In vivo toxicity of StcE (maximum tolerated dose, necropsy); design: species or system mouse
# Protocol: In vivo toxicity studies. 10-week-old C57BL/6 mice (bred in-house) were injected with PBS or StcE (0.15 mg/kg or 15 mg/kg) via intravenous injection. 9-week-old female BALB/cJ mice (Jackson Labs) were injected with PBS or 10 mg/kg αHER2-eStcE via intraperitoneal injection. Mice were submitted to the Animal Diagnostic Lab at Stanford University for necropsy and complete blood count (CBC) analyses 3 h post injection.
# [4] = target: T2, cell surface mucins (CD43) on mixed K562^±HER2 cells (Homo sapiens, UniProt P16150); experiment: K562 mixed cell CD43 cleavage assay; type: cell-based; conditions: 1 nM, overnight
# T2 construct: endogenous in cells; host or cells: K562 and K562^HER2 (HER2 retrovirally transduced; CD43 endogenous)
# T2 sequence (P16150 20-400): T1 sequence (P16150 20-400)
# Protocol: K562 mixed cell CD43 cleavage assay. 2.5×10^5 K562 and K562^HER2 cells were allocated per well to a 96-well ultra-low attachment round bottom plate in 150 μL of complete media. 50 μL of mucinases in PBS were added to wells and the plate was incubated (overnight unless stated otherwise) at 37° C. Cells were washed twice with cold FACS buffer with 2 mM EDTA, once with cold FACS buffer, and stained with Alexa Fluor 488 anti-human CD340 (erbB2/HER-2) antibody (24D2 clone) (BioLegend) and Alexa Fluor 647 CD43/sialophorin antibody (MEM^−59 clone) (Novus Biologicals) in FACS buffer supplemented with 0.1% benzonase on ice protected from light. Cells were washed three times with cold FACS buffer with 2 mM EDTA and stained with 1 μM Sytox AADvanced (Thermo Fisher Scientific) or 1 μM Sytox Blue in FACS buffer with 2 mM EDTA for 5 min on ice prior to analysis using a BD Accuri C6 plus or MACSQuant Analyzer 10 Flow Cytometer (Miltenyi Biotec). Samples were compensated using single-stained controls in FlowJo v. 10.0. Unstained and PBS-treated samples were used to define 0% and 100% cell surface CD43, respectively, and each sample was normalized to percent CD43 within each replicate. Using GraphPad Prism 9, replicates were fitted to inhibitor concentration vs normalized response.
substance,measurement,setting,value
"StcE: secreted protease of C1 esterase inhibitor, zinc metalloprotease pan mucinase from E. coli O157:H7; SEQ ID NO:1",Suspension survival in mixed HER2^+ and HER2- populations,[1],cell death in both populations
same,Cell surface CD43 level,[2],loss of cell surface CD43
same,Necropsy and CBC findings,[3]; 3 hours post injection of 15 mg/kg StcE I.V.,"hemorrhages underneath the skull, ecchymoses throughout the gastrointestinal tract, neutrophil accumulation in the lungs, and platelet depletion"
same,Maximum tolerated dose,[3]; Balb/c and C57BL/6 mice,0.25 mg/kg
same,Toxicity above the maximum tolerated dose,[3]; doses higher than 0.25 mg/kg,systemic toxicity
same,Removal of cell surface mucins on HER2- cells,[4],complete removal
same,Removal of cell surface mucins on HER2^+ cells,[4],complete removal

# — patent US20250276081A1, “Mucin-Active Proteases and Methods of Use” (priority 2022, published 2025)
